Laboratory results from patent publication US20180155451A1 (published 2018).
Changes are numbered by the printed parent chain. Names may count otherwise. Read-outs that look alike come from different tables or passages of the source. One block for each binder: values may come before it.

Columns and labels:
[1] = target: T1, FcγRIa (human, UniProt P12314 16-292); assay: SPR (Biacore4000), kinetic analysis
T1 construct: extracellular domain; also called FcgRIa; FcgRI; not shown: His tag attached to the C terminus
Method: The variants described above were assessed for their binding to FcγR according to the method described in Reference Example 8.
Analysis of interaction between obj ective antibody and the FcγR was carried out using Biacore T100 (GE Healthcare), Biacore T200, Biacore A100, and Biacore 4000. HBS-EP+ (GE Healthcare) was used as the running buffer, and the measurement temperature was set to 25° C. Chips produced by immobilizing the antigen peptide by the amine coupling method to a Series S sensor Chip CM5 (GE Healthcare), chips produced by allowing preliminarily biotinylated antigen peptides to interact with and immobilize onto a Series S Sensor Chip SA (certified) (GE Healthcare), chips produced by immobilizing Protein L (ACTIGEN, BioVision) to Series S Sencor Chip CM5 (GE Healthcare), or chips produced by immobilizing Protein A/G (Thermo Scientific) to Series S Sencor Chip CM5 (GE Healthcare) were used. Antibodies of interest were captured onto these chips, and allowed to interact to each FcγR diluted with running buffer. To regenerate and repeatedly use the chip, the antibodies captured onto the chip were washed off by reacting 10 mM glycine-HCl, pH 1.5.

[2] = target: T2, FcγRIIIa extracellular domain with C-terminal His tag (human, UniProt P08637 17-208); assay: SPR (Biacore), ratio of KD values for FcγRIIIa
T2 construct: extracellular domain; also called FcgRIIIa; CD16A
Method: (§1) To assess this hypothesis, GpH7-A53 (SEQ ID NO: 42) resulting from the introduction of S239D into GpH7-A5 was constructed, and, this is combined with GpH7-B78 introduced with S239D, A330L, and I332E, and the expression and preparation were performed according to the method described in Reference Example 1. The effect of the combination of S239D and S239D, A330L, and I332E was assessed by comparing the FcγRIIIa binding between the heterodimerized and homodimerized antibodies with S239D, A330L, and I332E according to the method described in Reference Example 2 (Table 14).
(§2) Analysis of interaction between objective antibody and the FcγR was carried out using Biacore T100 (GE Healthcare). HBS-EP+ (GE Healthcare) was used as the running buffer, and the measurement temperature was set to 25° C. Chips produced by immobilizing the antigen peptide by the amine coupling method to a Series S Sencor Chip CM5 (GE Healthcare), or alternatively, chips produced by allowing preliminarily biotinylated antigen peptides to interact with and immobilize onto a Series S Sensor Chip SA (certified) (GE Healthcare) were used. Antibodies of interest were captured onto an antigen peptide-immobilized chip, and allowed to interact to each FcγR diluted with running buffer. To regenerate and repeatedly use the chip, the antibodies captured on the chip were washed off by reacting 10 mM glycine-HCl, pH 1.5.

[3] = target: T2, FcγRIIIa extracellular domain with …; assay: SPR (Biacore), antibody captured, FcγRIIIa as analyte, 1:1 Langmuir kinetic fit
Method: The prepared antibodies were compared for the FcγRIIIa-binding activity using, as an indicator, KD for FcγRIIIa that was determined according to the method described in Reference Example 2.
as §2
(§3) The FcγR-binding activity of each antibody was assessed primarily using as an indicator the FcγR-binding activity and dissociation constant for FcγR.

[4] = target: T2, FcγRIIIa extracellular domain with …; assay: SPR (Biacore), ratio of KD values for FcγRIIIa; remark: listed apart in the source
Description: GpH7-A57 (SEQ ID NO: 40) resulting from the introduction of all of S239D, A330L, and I332E into GpH7-A5; GpH7-B78 (SEQ ID NO: 41) resulting from the introduction of all of S239D, A330L, and I332E into GpH7-B3; GpH7-TA7 (SEQ ID NO: 31) resulting from the introduction of all of L234Y, G236W, and S298A into GpH7-A5; and GpH7-TA45 (SEQ ID NO: 32) resulting from the introduction of all of L234Y, G236W, and S298A into GpH7-B3. […] The prepared antibodies were compared for the FcγRIIIa-binding activity using, as an indicator, KD for FcγRIIIa that was determined according to the method described in Reference Example 2.
as §2

[5] = target: T2, FcγRIIIa extracellular domain with …; assay: SPR (Biacore), antibody captured, FcγRIIIa as analyte, 1:1 Langmuir kinetic fit; remark: listed apart in the source
Method: as §1, §2, §3

[6] = target: T2, FcγRIIIa extracellular domain with …; assay: SPR (Biacore), ratio of KD values for FcγRIIIa; remark: listed apart in the source
Description: (§4) First, it was considered which H chain should be introduced with Y296W. GpH7-TA52 (SEQ ID NO: 44) resulting from the introduction of the mutation Y296W into GpH7-TA7 was constructed, and expressed and prepared in combination with GpH7-B78 according to the method described in Reference Example 1. Furthermore, GpH7-TA58 (SEQ ID NO: 45) resulting from the introduction of Y296W into GpH7-B78 was constructed, and expressed and prepared in combination with GpH7-TA22 according to the method described in Reference Example 1. To assess the effects of combinations with Y296W, the prepared antibodies were compared for the FcγRIIIa-binding activity according to the method described in Reference Example 2 (Table 16).
as §2

[7] = target: T2, FcγRIIIa extracellular domain with …; assay: SPR (Biacore), antibody captured, FcγRIIIa as analyte, 1:1 Langmuir kinetic fit; remark: listed apart in the source
Description: as §4, §2, §3

[8] = target: T2, FcγRIIIa extracellular domain with …; assay: SPR (Biacore), ratio of KD values for FcγRIIIa; remark: listed apart in the source
Description: (§5) Then, GpH7-TA54 (SEQ ID NO: 46) resulting from the introduction of Y296W into GpH7-TA22 was constructed, and expressed and prepared in combination with GpH7-B78 according to the method described in Reference Example 1. Furthermore, GpH7-TA58 (SEQ ID NO: 45) resulting from the introduction of Y296W into GpH7-B78 was constructed, and expressed and prepared in combination with GpH7-TA22 according to the method described in Reference Example 1. To assess the effect of combination with Y296W, the prepared antibodies were compared for the FcγRIIIa-binding activity according to the method described in Reference Example 2 (Table 17).
as §2

[9] = target: T2, FcγRIIIa extracellular domain with …; assay: SPR (Biacore), antibody captured, FcγRIIIa as analyte, 1:1 Langmuir kinetic fit; remark: listed apart in the source
Description: as §5, §2, §3

T2 sequence (P08637 17-208): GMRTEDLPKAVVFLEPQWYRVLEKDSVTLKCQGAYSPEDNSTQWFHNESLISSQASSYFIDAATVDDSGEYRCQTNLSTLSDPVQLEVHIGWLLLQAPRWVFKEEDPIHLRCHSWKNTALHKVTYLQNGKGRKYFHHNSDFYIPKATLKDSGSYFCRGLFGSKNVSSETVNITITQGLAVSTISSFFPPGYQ
T1 sequence (P12314 16-292): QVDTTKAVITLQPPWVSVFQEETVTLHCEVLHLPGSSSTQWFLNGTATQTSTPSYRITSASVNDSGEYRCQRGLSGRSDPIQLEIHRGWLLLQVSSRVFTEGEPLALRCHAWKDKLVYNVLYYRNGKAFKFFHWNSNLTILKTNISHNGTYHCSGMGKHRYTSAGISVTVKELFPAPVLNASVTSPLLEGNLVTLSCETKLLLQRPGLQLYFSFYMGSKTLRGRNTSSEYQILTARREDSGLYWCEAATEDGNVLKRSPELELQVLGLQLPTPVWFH

koff [1]: < 5e-05 s⁻¹
B1: H240-Kn120/H240-Hl073/L73-k0 (antibody, human IgG1, kappa)
heavy 1: QDQLVQSGAEVKKPGASVKVSCKASGFNIKDTYIQWVRQAPGQGLEWMGRIDPLRKQTKYREKFEGRVTITADTSTNTAYMELSSLRSEDTAVYYCVRSGREFDYWGQGTLVTVSSASTKGPSVFPLAPSSKSTSGGTAALGCLVKDYFPEPVTVSWNSGALTSGVHTFPAVLQSSGLYSLSSVVTVPSSSLGTQTYICNVNHKPSNTKVDKKVEPKSCDKTHTCPPCPAPEYYWGPMVFLFPPKPKDTLMISRTPEVTCVVVDVSDEDPEVKFNWYVDGVEVHNAKTKPREEQYNATYRVVSVLTVLHQDWLNGKEYKCKVSNKDLPAPIEKTISKAKGQPREPQVCTLPPSRDELTKNQVSLWCLVKGFYPSDIAVEWESNGQPENNYKTTPPVLDSDGSFFLYSKLTVDKSRWQQGNVFSCSVMHEALHNHYTQKSLSLSP
heavy 2: QDQLVQSGAEVKKPGASVKVSCKASGFNIKDTYIQWVRQAPGQGLEWMGRIDPLRKQTKYREKFEGRVTITADTSTNTAYMELSSLRSEDTAVYYCVRSGREFDYWGQGTLVTVSSASTKGPSVFPLAPSSKSTSGGTAALGCLVKDYFPEPVTVSWNSGALTSGVHTFPAVLQSSGLYSLSSVVTVPSSSLGTQTYICNVNHKPSNTKVDKKVEPKSCDKTHTCPPCPAPELLSGPSVFLFPPKPKDTLMISRTPEVTCVVVDVSHEEPEVKFNWYVDGVEVHNAKTKPREEQYNSTYRVVSVLTVLHQDWLNGKEYKCKVSNDALPKPIEETISKAKGQPREPQVYTLPPSRCELTKNQVSLSCAVKGFYPSDIAVEWESNGQPENNYKTTPPVLDSDGSFFLVSKLTVDKSRWQQGNVFSCSVMHEALHNHYTQKSLSLSP
light: DIQMTQSPSSLSASVGDRVTITCRASQDIHKYIAWYQQKPGQAPRLLIQYTSTLQPGVPSRFSGSGSGTDYTFTISSLQPEDIATYYCLQYEQLRTFGGGTKVEIKRTVAAPSVFIFPPSDEQLKSGTASVVCLLNNFYPREAKVQWKVDNALQSGNSQESVTEQDSKDSTYSLSSTLTLSKADYEKHKVYACEVTHQGLSSPVTKSFNRGEC
notes: G236S in H240-Hl068

KD ratio (KD of GpH7-A5/GpH7-B78/GpL16-k0 divided by KD of the antibody) [2]: 1 fold
Kd [3]: 54 nM
KD ratio 1 (KD of GpH7-G1d/GpL16-k0 divided by KD of the antibody) [4]: 23 fold
KD ratio 2 (KD of GpH7-A5/GpH7-B3/GpL16-k0 divided by KD of the antibody) [4]: 30 fold
Kd [5]: 54 nM
B2: GpH7-A5/GpH7-B78/GpL16-k0 (antibody, human IgG1, kappa)
heavy 1: not shown
heavy 2: QVQLVQSGAEVKKPGASVTVSCKASGYTFTDYEMHWIRQPPGEGLEWIGAIDPKTGDTAYSESFQDRVTLTADKSTSTAYMELSSLTSEDTAVYYCTRFYSYTYWGQGTLVTVSSASTKGPSVFPLAPSSKSTSGGTAALGCLVKDYFPEPVTVSWNSGALTSGVHTFPAVLQSSGLYSLSSVVTVPSSSLGTQTYICNVNHKPSNTKVDKKVEPKSCDKTHTCPPCPAPELLGGPDVFLFPPKPKDTLMISRTPEVTCVVVDVSHEDPEVKFNWYVDGVEVHNAKTKPREEQYNSTYRVVSVLTVLHQDWLNGKEYKCKVSNKALPLPEEKTISKAKGQPREPQVYTLPPSRDELTKNQVSLTCLVKGFYPSDIAVEWESNGQPENNYKTTPPVLDSDGSFFLYSKLTVDKSRWQQGNVFSCSVMHEALHNHYTQESLSLSP
light: DIVMTQSPLSLPVTPGEPASISCQASESLVHSNRNTYLHWYLQKPGQSPQLLIYKVSNRFSGVPDRFSGSGSGTDFTLKISRVEAEDVGVYYCSQNTHVPPTFGQGTKVEIERTVAAPSVFIFPPSDEQLKSGTASVVCLLNNFYPREAKVQWKVDNALQSGNSQESVTEQDSKDSTYSLSSTLTLSKADYEKHKVYACEVTHQGLSSPVTKSFNRGEC
notes: Heterodimerized anti-glypican-3 IgG1 variant

KD ratio (KD of GpH7-TA7/GpH7-B78/GpL16-k0 divided by KD of the antibody) [6]: 1.8 fold
Kd [7]: 2.3 nM
B3: GpH7-TA52/GpH7-B78/GpL16-k0 (antibody, human IgG1, kappa)
heavy 1: B2 heavy 2 with L232Y, G234W, D237S, Y294W, S296A, L328A, E330I, D354K, H433R, E437K
heavy 2: B2 heavy 2
light: B2 light
notes: as for B2

KD ratio (KD of GpH7-A5/GpH7-B78/GpL16-k0 divided by KD of the antibody) [2]: 8.7 fold
Kd [3]: 6.2 nM
KD ratio 1 (KD of GpH7-G1d/GpL16-k0 divided by KD of the antibody) [4]: 199 fold
KD ratio 2 (KD of GpH7-A5/GpH7-B3/GpL16-k0 divided by KD of the antibody) [4]: 263 fold
Kd [5]: 6.2 nM
B4: GpH7-A57/GpH7-B78/GpL16-k0 (antibody, human IgG1, kappa)
heavy 1: B2 heavy 2 with D354K, H433R, E437K
heavy 2: B2 heavy 2
light: B2 light
notes: the chains differ only in D356K/H435R against K439E

KD ratio (KD of GpH7-A5/GpH7-B78/GpL16-k0 divided by KD of the antibody) [2]: 4.9 fold
Kd [5]: 11 nM
B5: GpH7-A53/GpH7-B78/GpL16-k0 (antibody, human IgG1, kappa)
heavy 1: B2 heavy 2 with L328A, E330I, D354K, H433R, E437K
heavy 2: B2 heavy 2
light: B2 light
notes: as for B2

KD ratio (KD of GpH7-TA7/GpH7-B78/GpL16-k0 divided by KD of the antibody) [6]: 1.2 fold
Kd [7]: 3.3 nM
B6: GpH7-TA7/GpH7-TA58/GpL16-k0 (antibody, human IgG1, kappa)
heavy 1: B2 heavy 2 with L232Y, G234W, D237S, S296A, L328A, E330I, D354K, H433R, E437K
heavy 2: B2 heavy 2 with Y294W
light: B2 light
notes: as for B2

KD ratio (KD of GpH7-TA22/GpH7-B78/GpL16-k0 divided by KD of the antibody) [8]: 10 fold
Kd [9]: 1.3 nM
B7: GpH7-TA22/GpH7-TA58/GpL16-k0 (antibody, human IgG1, kappa)
heavy 1: B2 heavy 2 with L232Y, G234W, S296A, L328A, E330I, D354K, H433R, E437K
heavy 2: B2 heavy 2 with Y294W
light: B2 light
notes: as for B2

KD ratio (KD of GpH7-TA22/GpH7-B78/GpL16-k0 divided by KD of the antibody) [8]: 1.3 fold
Kd [9]: 1 nM
B8: GpH7-TA54/GpH7-B78/GpL16-k0 (antibody, human IgG1, kappa)
heavy 1: B2 heavy 2 with L232Y, G234W, Y294W, S296A, L328A, E330I, D354K, H433R, E437K
heavy 2: B2 heavy 2
light: B2 light
notes: as for B2
